Results on 17 sequences are retold here after the DeepSol protein solubility set.

This data set can be described thus: soluble on expression in E. coli; label from the status in PepcDB or PDB records.
As for “MVGRKRRASMSITDGNGSLSDTVRPGDWVVVAELATPAFSVKNPESYQVASPLPLPLPSTLLGGLMRGASLLGSCTGGIASQSCIKKTGRIVKAAAPLSKPGQILGVEWEVVLRRLRKVLEPDSEEGSTRENRGNRVLDELSRISDALLRGYITPYNPVYAVFVARGRDNANRIEKALWYIDRLGDSESLVSARPVGRCQLAEFRSKSVNTPVALDSAVGGSFTVVYAPARAGRTGRTRRSEAIAIAMPVKKEAVERGYVLVYSEIEVEGSVYGCSVEGIDGRINVAVHESFHEVSGYGIWMPA”, the “soluble on expression in E. coli” value is recorded as “not soluble”.
For the sequence “MVHEEDFKEGYILGFIEAEGSFSVSIKFQRDVFGGVRLDPVFSITQKNREVLEAIKEHLGIGRIMEKAGQPNTYVYVVDNFNELVKLINFLNKYADFMIVKKRQFLMFREIANGLVNGEHLHINGLKRLVKLAYELTKESEKGYRKYDLNHVLSIIDKWDLGRNVSTSL”, the “soluble on expression in E. coli” value is given as “soluble”.
Consider “MVKGVETKTIVGLEVGTSKVVVVVGEVFPDGVVNVLGVGSCPSKGIDRGSITDLDAVVGSIQRAIEAAESMADCQIMSVTLAITGEHIQSLNESGFVPIAESEVTQEEIDSALHTASSIKLPEGL”, for which the “soluble on expression in E. coli” value is listed as “not soluble”.
For “MVKSLQLAHQLKDKRILLIGGGEVGLTRLYKLMPTGCKLTLVSPDLHKSIIPKFGKFIQNKDQPDYREDAKRFINPNWDPTKNEIYEYIRSDFKDEYLDLENENDAWYIIMTCIPDHPESARIYHLCKERFGKQQLVNVADKPDLCDFYFGANLEIGDRLQILISTNGLSPRFGALVRDEIRNLFTQMGDLALEDAVVKLGELRRGIRLLAPDDKDVKYRMDWARRCTDLFGIQHCHNIDVKRLLDLFKVMFQEQNCSLQFPPRERLLSEYCSS” the value was “soluble”.
As for “MVKVEDAIVARLESHGYHFEILVDPDAIERIRKGNIDIENDLAFPEVYKDVRKGEKASDDSLKEAFKTTVIAQVAIEIVKKGQIQLTTEQRREMYDERRKQIVNLIAREGINPQTNTPHTPYRISQAMDEAKVKIDPLKPAEDQVQNVLKAIMPIIPIRLEKAKIAVKLIGDAYGKLYGELAKSGYM”, the “soluble on expression in E. coli” value was “not soluble”.
“MVKVVGVRFKKAGKIYYFDPGDLEINLHENVIVETARGIEFGQVVVPNTEVSEEEIVAPLKKVIRVATEEDKAHHEDNIRREKEAFDICLQKIANHKLEMKLVGVEYTFDNNKILFYFTADGRVDFRELVKDLASVFRTRIELRQIGVRDEAKMMGGLGVCGRVLCCNSFLGEFQPVSIKMAKEQGLSLNPAKISGACGRLMCCLKYEQEAYEEIISRVPKEGAIVETPDGQGVVMSVSLLKELVKVKLDRENETDLKVYKASEVKVIKDVTREETEEEEIDLDELKQLED”: the “soluble on expression in E. coli” value is recorded as “soluble”.
Turning to “MVKVYAPASSANMSVGFDVLGAAVTPVDGALLGDVVTVEAAETFSLNNLGRFADKLPSEPRENIVYQCWERFCQELGKQIPVAMTLEKNMPIGSGLGSSACSVVAALMAMNEHCGKPLNDTRLLALMGELEGRISGSIHYDNVAPCFLGGMQLMIEENDIISQQVPGFDEWLWVLAYPGIKVSTAEARAILPAQYRRQDCIAHGRHLAGFIHACYSRQPELAAKLMKDVIAEPYRERLLPGFRQARQAVAEIGAVASGISGSGPTLFALCDKPETAQRVADWLGKNYLQNQEGFVHICRLDTAGARVLEN”, the “soluble on expression in E. coli” value is “soluble”.
Consider “MVLEHCRDAIESHGVETDIISLRGMKIESCRACLSCAKKHRCRIDDGLNDIIDRIRDSEGFIVATPVYFGTARGDLMAALQRIGMVSRASDGFLSWKVGGPIAVARRGGHTATIQELLMFYFINDMIVPGSTYWNMVFGWAPGEVEDDSEGIETIRRFGENVAELIKRINGGSLEHHHHHH”, for which the “soluble on expression in E. coli” value is “not soluble”.
For the sequence “MVLEKIEPAQEEHEKYHSNVKELSHKFGIPNLVARQIVNSCAQCQQKGEAIHGQVNAELGTWQMDCTHLEGKIIIVAVHVASGFIEAEVIPQESGRQTALFLLKLASRWPITHLHTDNGANFTSQEVKMVAWWIGIEQSFGVPYNPQSQGVVEAMNHHLKNQISRIREQANTIETIVLMAVHCMNFKRRGGIGDMTPSERLINMITTEQE”, the “soluble on expression in E. coli” value is reported as “soluble”.
In the case of “MVLGEYYAVAGHIGFGGKADARHMGNDPRRALVHPPFLPDFGQHIFFHRALEPENRWKRMAGRPRTSAARAFCRQ”, the “soluble on expression in E. coli” value is reported as “not soluble”.
As to “MVLIKEFRVVLPCSVQEYQVGQLYSVAEASKNETGGGEGIEVLKNEPYEKDGEKGQYTHKIYHLKSKVPAFVRMIAPEGSLVFHEKAWNAYPYCRTIVTNEYMKDDFFIKIETWHKPDLGTLENVHGLDPNTWKTVEIVHIDIADRSQVEPADYKADEDPALFQSVKTKRGPLGPNWKKELANSPDCPQMCAYKLVTIKFKWWGLQSKVENFIQKQEKRIFTNFHRQLFCWIDKWIDLTMEDIRRMEDETQKELETMRKRGSVRGTSAADV”, the “soluble on expression in E. coli” value is given as “soluble”.
With “MVLPKSKNQIGLGRAIQSDFTKNRRNRKGGLKHIVDSDPKAHRAALRSVTHETDLDEFLNTAELGEVEFIAEKQNVTVIQNPEQNPFLLSKEEAARSKQKQEKNKDRLTIPRRPHWDQTTTAVELDRMERESFLNWRRNLAQLQDVEGFIVTPFERNLEIWRQLWRVIERSDVVVQIVDARNPLFFRSAHLEQYVKEVGPSKKNFLLVNKADMLTEEQRNYWSSYFNENNIPFLFFSARMAAEANERGEDLETYESTSSNEIPESLQADENDVHSSRIATLKVLEGIFEKFASTLPDGKTKMTFGLVGYPNVGKSSTINALVGSKKVSVSSTPGKTKHFQTINLSEKVSLLDCPGLVFPSFATTQADLVLDGVLPIDQLREYTGPSALMAERIPKEVLETLYTIRIRIKPIEEGGTGVPSAQEVLFPFARSRGFMRAHHGTPDDSRAARILLKDYVNGKLLYVHPPPNYPNSGSEFNKEHHQKIVSATSDSITEKLQRTAISDNTLSAESQLVDDEYFQENPHVRPMVKGTAVAMQGPVYKGRNTMQPFQRRLNDDASPKYPMNAQGKPLSRRKARQLTALELGVSPEALSSATSKKHNKKNKRSKQRSGVVIDDY”, the “soluble on expression in E. coli” value is reported as “soluble”.
For “MVNIMDEIIVVTTPTIPGYKIIEVKGIARGGIVMATHLGRDILALLRNIKGGEVKEYTQMMAEAREEALRRMIEHAKKLGANAVVNFRFATSNVGGGMAEVYAYGTAVVVEREKMASMTGGQQMGRIRIRLEHHHHHH”, the “soluble on expression in E. coli” value is listed as “soluble”.
“MVPELKQISRVEAMRLGPGWSHSCHAMLYAANPGQLFGRIPMRFSVLMQMRFDGLLGFPGGFVDRRFWSLEDGLNRVLGLGLGCLRLTEADYLSSHLTEGPHRVVAHLYARQLTLEQLHAVEISAVHSRDHGLEVLGLVRVPLYTQKDRVGGFPNFLSNAFVSTAKCQLLFALKVLNMMPEEKLVEALAAATEKQKKALEKLLPASSAHHHHHH”: the “soluble on expression in E. coli” value was “soluble”.
In the case of “MVRLIHTLADHGDDVSCCAFSAALLATCSLDKTIRLYSLSDFAELPYSPLKFHTYAVHCCCFSPSGHVLASCSTDGTTVLWSSHSGHTLTVLEQPGGSPVRVCCFSPDSAYLASGAADGSIALWNAQTYKLYRCGSVKDSSLVACAFSPDGGLFVTGSSGGDLTVWDDRMRCLHSEKAHDLGITCCSFSSQPLSGGEGLQSYQLASCGQDCEIKLWAVTITRVLGFELKYKSTLSGHCAPVLACAFSHDGKMLASGSVDKSVIIHGIGPQSVLHTLTQHTRYVTTCAFAPNTLLLATGSMDKTVNIWQFDLETPCQGSMNDPLKHFTEEWSEEDVSVWLRAQGLEDLVGIFRANNIDGKELLHLTKESLAGDLKIESLGLRSKVLRSIEELRAKMDSLSSGIPDEFICPITRELMKDPVIASDGYSYEREAMESWIHKKKRTSPMTNLALPSLVLTPNRTLKMAINRWLETHEK”, the “soluble on expression in E. coli” value is recorded as “soluble”.
In the case of “MVRVKVNDRIVEVPPGTSVMDAVFHAGYDVPLFCSEKHLSPIGACRMCLVRIGLPKKGPDGKPLLNEKGEPEIQWQPKLAASCVTAVADGMVVDTLSDVVREAQAGMVEFTLLNHPLDCPTCDKGGACELQDRTVEYGLYEKYYQKGPLELPVYTRFEFTRRHVDKHHPLSPFVILDRERCIHCKRCVRYFEEVPGDEVLDFIERGVHTFIGTMDFGLPSGFSGNITDICPVGALLDLTARFRARNWEMEETPTTCALCPVGCGITADTRSGELLRIRAREVPEVNEIWICDAGRFGHEWADQNRLKTPLVRKEGRLVEATWEEAFLALKEGLKEARGEEVGLYLAHDATLEEGLLASELAKALKTPHLDFQGRTAAPASLFPPASLEDLLQADFALVLGDPTEEAPILHLRLSEFVRDLKPPHRYNHGTPFADLQIKERMPRRTDKMALFAPYRAPLMKWAAIHEVHRPGEEREILLALLGDKEGSEMVAKAKEAWEKAKNPVLILGAGVLQDTVAAERARLLAERKGAKVLAMTPAANARGLEAMGVLPGAKGASWDEPGALYAYYGFVPPEEALKGKRFVVMHLSHLHPLAERYAHVVLPAPTFYEKRGHLVNLEGRVLPLSPAPIENGEAEGALQVLALLAEALGVRPPFRLHLEAQKALKARKVPEAMGRLSFRLKELRPKERKGAFYLRPTMWKAHQAVGKAQEAARAELWAHPETARAEALPEGAQVAVETPFGRVEARVVHREDVPKGHLYLSALGPAAGLRVEGRVLVPAGGEA”, the “soluble on expression in E. coli” value is recorded as “soluble”.
For “MVSEREQLACLVQQWNENRLDLFHLSYPTEDLEVEGVMRFYFQDGGEKVLTKCVRVSSTATTRAVVDALSEKFLPDLKMLSNDTYSLWEVHENGEERKLLDEEKPLVVQLQWHKDDREGRFLLKKDAAPPVSLLNLQEADQKNTRFAKKKDKEPKKKNQKNFVQVNGGREEAQSQDDIYKQVPFNTFTRTISNPEAVMRKRREKKLETKLKEMMFGGSLKVYGGEIVPTRPYVSILAEINENADRILGAALEKYGLEHSKDDFILVEVSNDDDRKSMSDLREIDGRPIPPTECPLFEMTARSGNGENGFDSFLAIKRKPHDYQVPSTSVVAPSSVTLPMSPLTSLPPQIHNLPVLIVMNNDGHLSTHRITLHEGVTEVGSDSQMSNFSQHNIYLDGPDIRGRHAAIAFMEGVVTLTPSTRDAYLEVNGHQLMQTEILRDGDHIRIGADHSFKFSTSSSQANQINSTNISNSNQRHFQQQTFYPEMADSRASTARCAPSDYCSLPQQNDYYPPSMSGSSVSSSRQEDLMMHSNNNILPPYSTKSAQEPLQLPLSIQIGDYNVWDFLAEVMSNRAATSSEMSTFRLSPAYSLYLALRSFHTHNKPYSVQFFSRIESNFKQIAQECSSKDDLIFWLANASEFNHLVERDTELKASRYGKISVEIERIFRRLVAVLQSVIRPAARALLDIHLNDHDATGDVIHLLDTTMRQARICGLNAALTIQLCGHLLHMVNAFVFNSLVSVNLPAAQLNTRLGKCLQYRIESIHRFCERMGVEMAAECHLDRSRQAANLLATQKNDVAALGSTCYKLNSLQVVHILSGFEPDDGEIPCDDDVVDRICRLAEKQADKLTLEDGQRVTLEESDELNLPFLIPQDGYFVEQFRTVPDGLWQYLQQLQHRRLCHTVSLTPAPPAAMTHSMHAMHIGASDAHYHQHQHQQQQNPIVRSVSQTTLTSIPTTQFGDSFGSAVSDTISKVTLRKNGGGIGLSIVAAQGVGDRQMGIYVKKVVEGTPAAHDGRLETGDQLLSVNGHSLIGISQEEFVFQ” the value was “not soluble”.
